# Reference: US20230175000, “MAIZE GENE ZMRAVL1 AND FUNCTIONAL SITE AND USE THEREOF” (CHINA AGRICULTURAL UNIVERSITY, published 2023)
# T1: DRL1 (Drooping leaf1, YABBY C2C2) (Zea mays, UniProt A0A804LG43 A0A804LG43:1-207)
# T1 sequence: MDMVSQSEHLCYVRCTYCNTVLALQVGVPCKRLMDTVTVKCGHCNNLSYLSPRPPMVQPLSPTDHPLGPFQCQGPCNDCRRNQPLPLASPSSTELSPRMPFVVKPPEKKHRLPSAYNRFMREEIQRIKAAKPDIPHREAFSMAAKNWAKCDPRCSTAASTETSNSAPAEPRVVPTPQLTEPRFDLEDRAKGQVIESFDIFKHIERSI
# Molecular target: T1, DRL1 (Drooping leaf1, YABBY C2C2)
# Test: EMSA; room temperature 20 min; band slightly brighter than W22 probe; competed by unlabeled probe
# Settings: tags: His fusion (PET32a, E. coli Rosetta, nickel beads); label: biotin
# Experimental: EMSA (electrophoretic mobility shift assay) was carried out to validate the above speculation. First of all, biotin-labeled EMSA probes (UPA2-NIL^W22 biotin probes: UPA2-NIL^W22-F, UPA2-NIL^W22-R; UPA2-NIL^W22 competitive probe: UPA2-NIL^W22-com-F, UPA2-NIL^W22-com-R; UPA2-NIL⁸⁷⁵⁹ biotin probes: UPA2-NIL⁸⁷⁵⁹-F, UPA2-NIL⁸⁷⁵⁹-R; UPA2-NIL⁸⁷⁵⁹ competitive probe: UPA2-NIL⁸⁷⁵⁹-com-F, UPA2-NIL⁸⁷⁵⁹-com-R) were designed for the sequences of UPA2-NIL^W22 and UPA2-NIL⁸⁷⁵⁹ respectively. The probe included a C2C2-binding motif and upstream and downstream flanking sequences (each 22 bp). In the meantime, the corresponding sequences that were not labeled with biotin were synthesized as competitive probes. Next, the DRL1 CDS region was recombined onto a PET32a prokaryotic expression vector by a homologous recombination method to construct an expression vector of DRL1-His fusion proteins and it was introduced into the expression strain Rosetta to induce the expression of the DRL1-His fusion proteins. Finally, the DRL1-His fusion proteins were obtained through purification using Nickel beads. […]
binder,measurement,value
UPA2-NIL8759 probe (dsDNA) DNA 1: AACTGCGCATGCGCGCGCTGAGTGTGGTCCTTCTCTTTTAATTACTACTG DNA 2: CAGTAGTAATTAAAAGAGAAGGACCACACTCAGCGCGCGCATGCGCAGTT,binding result,binds
